One experiment has as its target Human IFNω (human, UniProt P05000 24-195). As to the kind of experiment: plate ELISA, human IFNω coated at 5 µg/mL. In general terms: ELISA stands for enzyme-linked immunosorbent assay.
Another experiment concerns the target T1, Cynomolgus monkey IFNβ (cynomolgus monkey, UniProt O77812 22-187).
T1 construct: also called cyno-IFNβ
As to the kind of experiment: plate ELISA, cynomolgus IFNβ coated at 5 µg/mL, antibody titrated from 30 nM.

The target of experiment [1] is T2, Human IFNβ (mature human interferon beta) (human, UniProt P01574 22-187). As to the kind of experiment: cell-based or functional assay.
Experiment [2] addresses T2, Human IFNβ (mature human interferon …). As to the kind of experiment: ELISA (summary value); human IFNβ.
The next experiment deals with T3, CID1285 (human (IFNβ with IFNα sequence inserted), UniProt P01574 22-187).
T3 chain: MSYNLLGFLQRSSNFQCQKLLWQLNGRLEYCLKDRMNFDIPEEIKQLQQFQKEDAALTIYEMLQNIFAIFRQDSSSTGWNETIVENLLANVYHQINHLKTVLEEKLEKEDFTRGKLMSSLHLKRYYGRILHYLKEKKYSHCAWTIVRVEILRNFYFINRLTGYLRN
As to the kind of experiment: cell-based or functional assay.

The target in the next experiment is T4, CID1281 (human (IFNβ with IFNα sequence inserted), UniProt P01574 22-187).
T4 chain: T3 chain with N90E, H93Q, H97D, K99E, T100A, E135A, K137E
As to the kind of experiment: cell-based or functional assay.

A further experiment concerns the target T5, CID1283 (human (IFNβ with IFNα sequence inserted), UniProt P01574 22-187).
T5 chain: T3 chain with S119I, K123R, R124K, E135A, K137E
As to the kind of experiment: cell-based or functional assay.

The next experiment addresses T6, CID1287 (human (IFNβ with IFNα sequence inserted), UniProt P01574 22-187).
T6 chain: T3 chain with E135A, K137E, V148A, Y155S, F156L, N158T
As to the kind of experiment: cell-based or functional assay.

The target in experiment [3] is T2, Human IFNβ (mature human interferon …). As to the kind of experiment: cell-based or functional assay. The source holds these as a separate data set.
For the next experiment, the target named is T7, CID1277 (human (IFNβ with IFNα sequence inserted), UniProt P01574 22-187).
T7 chain: T3 chain with M36H, N37D, D39G, E42Q, E135A, K137E
As to the kind of experiment: cell-based or functional assay.

In another experiment the target is T8, CID1276 (human (IFNβ with IFNα sequence inserted), UniProt P01574 22-187).
T8 chain: T3 chain with F15R, Q16R, Q18L, K19M, W22A, E135A, K137E
As to the kind of experiment: cell-based or functional assay.

The next experiment concerns the target T9, CID1286 (human (IFNβ with IFNα sequence inserted), UniProt P01574 22-187).
T9 chain: T3 chain with E135A, K137E, H140P
As to the kind of experiment: cell-based or functional assay.

In another experiment the target is T10, CID1280 (human (IFNβ with IFNα sequence inserted), UniProt P01574 22-187).
T10 chain: T3 chain with E85D, N86K, A89T, E135A, K137E
As to the kind of experiment: cell-based or functional assay.

The target of experiment [4] is T2, Human IFNβ (mature human interferon …). As to the kind of experiment: cell-based or functional assay. This is another data set of the same source.
A further experiment concerns the target T11, Human IFNγ (human, UniProt P01579 24-166, limits assumed).
T11 construct: also called IFNγ (type II)
T11 sequence (looked up): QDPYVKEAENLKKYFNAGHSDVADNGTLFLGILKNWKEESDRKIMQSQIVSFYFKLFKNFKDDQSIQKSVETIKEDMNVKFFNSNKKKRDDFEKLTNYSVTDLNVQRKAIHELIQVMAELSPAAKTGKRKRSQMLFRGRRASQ
As to the kind of experiment: plate ELISA, IFNγ coated at 5 µg/mL.

The target of the next experiment is Mouse IFNβ (mouse, UniProt P01575 22-182). As to the kind of experiment: plate ELISA, mouse IFNβ coated at 1 µg/mL.
Sequence of Mouse IFNβ (P01575 22-182): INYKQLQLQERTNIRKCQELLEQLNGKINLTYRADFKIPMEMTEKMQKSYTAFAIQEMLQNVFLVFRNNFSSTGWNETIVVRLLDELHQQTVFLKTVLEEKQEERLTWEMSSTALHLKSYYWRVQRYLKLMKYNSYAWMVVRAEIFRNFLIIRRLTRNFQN
Experiment [5] addresses T2, Human IFNβ (mature human interferon …). As to the kind of experiment: plate ELISA, human IFNβ coated at 5 µg/mL, antibody titrated from 30 nM.
The target is the same in experiment [6]. As to the kind of experiment: Octet (BLI) response rank; method not described.

Positions count from the first letter of the chain named.

T1 sequence (O77812 22-187): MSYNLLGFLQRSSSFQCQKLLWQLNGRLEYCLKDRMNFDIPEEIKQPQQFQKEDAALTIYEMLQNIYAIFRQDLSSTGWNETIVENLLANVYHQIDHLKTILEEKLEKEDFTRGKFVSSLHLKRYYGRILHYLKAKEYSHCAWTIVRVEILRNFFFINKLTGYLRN
Sequence of Human IFNω (P05000 24-195): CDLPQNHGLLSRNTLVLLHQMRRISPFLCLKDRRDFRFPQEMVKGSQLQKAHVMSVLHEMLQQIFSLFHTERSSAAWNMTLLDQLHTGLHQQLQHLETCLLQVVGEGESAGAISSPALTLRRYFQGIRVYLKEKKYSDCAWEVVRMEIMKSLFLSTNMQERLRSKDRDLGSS

B1: CTI-AF1 (antibody, human IgG1, kappa, V domains shown)
VH: QVQLVQSGAEVKKPGSSVKVSCKASGYTFSRYWMHWVRQAPGQGLEWMGHIDPSDSYTYYNQKFKGRVTITADESTSTAYMELSSLRSEDTAVYYCARWDYGNLLFEYWGQGTLVTVSS
VL: DIQMTQSPSSLSASVGDRVTITCRTSQDIGNYLNWYQQKPGKAFKLLIYSTSRLHSGVPSRFSGSGSGTDFTLTISSLQPEDFATYYCQQGIILPITFGGGTKVEIKR
notes: Humanized IgG1; The C-terminal K of the heavy chain is printed as optional, '(K)'; also called anti-IFNβ antibody; humanized IgG1 antibody against interferon beta
In general, EC50 refers to the concentration that produces a half-maximal response. As to B1, the binding result with Human IFNω, with Human IFNγ and with Mouse IFNβ was “no binding” throughout. For the same molecule, the EC50 is 0.0247 nM with Cynomolgus monkey IFNβ, 0.0153 nM in experiment [2] and 0.0151 nM in experiment [5]. Also, in [1], the “IC50, IFNβ induced luciferase activity in HEK293 ISRE-Luc cells” value turned out to be 0.0288 nM. Also, the “IC50, M×A (M×1) gene expression in human dermal fibroblasts stimulated with recombinant IFNβ” value in [1] worked out at 0.0294 nM. For the same molecule, the “IC50, inhibition of IFNβ induced STAT1 phosphorylation in U937 cells (phosflow)” value in [1] was found to be 0.0298 nM. Besides, the “IC50, neutralization of IFNβ induced STAT1 phosphorylation” value in [1] was determined as 0.0077 nM. Besides, the “IC50 (nM), neutralization of type I IFN-induced STAT1 phosphorylation” value with CID1285 turned out to be 0.4 nM; with CID1281, 3280 nM; with CID1283 it was 0.4 nM; with CID1287, 0.3 nM; in [3], 0.3 nM; in the experiment with CID1277, 0.3 nM. Besides, the “IC50 (nM), neutralization of type I IFN-induced STAT1 phosphorylation” value with CID1276 worked out at 0.2 nM; with CID1286, 0.4 nM; in the experiment with CID1280, 47.7 nM. Also, the “IC50 (pM) ISRE Neutralization” value in [4] was found to be 2 pM. Also, in [4], the “IC50 (pM) pSTAT1 Inhibition” value came to 4 pM. Moreover, the “Response rank (Octet)” value in experiment [6] is 1 rank.

The values are drawn from US20170313769A1 (Pfizer, published 2017).
